# Test results published in patent US7871610B2, “Antibodies to Tie1 ectodomain” (Dyax Corp., priority 2003, dated 2011).
# T1: recombinant human Tie1-Fc (Homo sapiens, UniProt P35590)
# T1 construct: selected against the Tie1 extracellular domain fused to human Fc or to a histidine purification tag
# T1 sequence (P35590 22-759 limits assumed): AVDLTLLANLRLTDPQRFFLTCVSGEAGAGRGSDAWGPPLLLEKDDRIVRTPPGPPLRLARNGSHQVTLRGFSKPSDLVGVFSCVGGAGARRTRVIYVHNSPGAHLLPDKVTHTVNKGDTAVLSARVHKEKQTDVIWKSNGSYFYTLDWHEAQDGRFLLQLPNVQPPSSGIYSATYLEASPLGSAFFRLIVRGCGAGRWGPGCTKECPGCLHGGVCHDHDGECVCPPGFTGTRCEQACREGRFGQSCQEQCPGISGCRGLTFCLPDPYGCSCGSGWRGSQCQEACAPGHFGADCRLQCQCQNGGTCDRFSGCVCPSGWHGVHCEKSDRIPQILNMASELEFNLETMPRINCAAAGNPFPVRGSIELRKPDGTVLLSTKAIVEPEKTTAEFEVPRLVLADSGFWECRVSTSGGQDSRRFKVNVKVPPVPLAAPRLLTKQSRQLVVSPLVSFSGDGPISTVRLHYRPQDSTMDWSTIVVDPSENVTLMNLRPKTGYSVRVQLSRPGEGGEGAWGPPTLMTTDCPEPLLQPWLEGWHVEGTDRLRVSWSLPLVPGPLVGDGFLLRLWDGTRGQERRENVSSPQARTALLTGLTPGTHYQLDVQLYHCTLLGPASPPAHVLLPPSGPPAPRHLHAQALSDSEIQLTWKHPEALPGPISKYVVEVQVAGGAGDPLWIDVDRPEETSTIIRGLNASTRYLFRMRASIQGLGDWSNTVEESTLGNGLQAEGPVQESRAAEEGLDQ
# B1: E3: human anti-Tie1 antibody from Fab phage library; HC SEQ ID NO:114, LC SEQ ID NO:116 (antibody, V domains shown)
# VH: EVQLLESGGGLVQPGGSLRLSCAASGFTFSMYGMVWVRQAPGKGLEWVSVISPSGGNTGYADSVKGRFTISRDNSKNTLYLQVNSLRAEDTAVYYCARAPRGYSYGYYYWGQGTLVTVSSASTKGPSVFPLAPSSKSTSGG
# VL: DIQMTQSPLSLSASVGDRVTITCRASQGIGHYLAWYQQKPGKVPKLLIYTASTLQSGVPSRFSGSGSGTDFTLTINSLQPEDVATYYCQQFNSYPHTFGQGTRLDIK
# modifications: Synthetically generated peptide
# Biological target: T1, recombinant human Tie1-Fc
# Assay: ELISA on recombinant human Tie-1-Fc
# Type: binding
# Conditions: soluble Fab 5 or 1 μg per 100 μl; 500 or 50 ng antigen per well
# Procedure: To evaluate if the conversion of any of the somatic mutations in the framework of E3 back to germline residues had any effect on binding activity the soluble Fabs were produced. The soluble expression vector containing the parental E3 Fab and the germlined E3 Fab construct were grown overnight at 30° C. in 2×TY broth containing 100 μg/ml ampicillin and 2% glucose and use 4 ml of this overnight culture to inoculate 400 ml of 2×TY broth containing 100 μg/ml ampicillin and 0.1% glucose. Cells were grow at 37° C. until an OD600 of 0.8-1.0, 1 mM IPTG was added and the culture was maintained at 30° C. for 4 hours. The cultures were spun down at 4,000 rpm for 15 min at 4° C. […] Dialyze against PBS using dialysis cassettes (SLIDE-A-LYSER™ Dialysis Cassettes, MWCO 10,000, Pierce, cat. no. 66380) and determine the protein concentration from the absorbance at 280 nm assuming that a 1 mg/ml solution has an absorbance of 0.86. The quality of the preparations can be analyzed by reducing and non-reducing SDS-PAGE.
# Wells of an IMMULON™ 2 HB plate coated overnight with 500 ng or 50 ng of purified recombinant human Tie-1-Fc target antigen per 100 microliters 0.1 M sodium bicarbonate buffer, pH 8.5. […] After washing the wells seven times 100 microliters TMB-H2O2 solution was added to each well and the plate read at 630 nm in an ELISA. […]
molecule,measurement,value
B1,binding to recombinant human Tie-1-Fc in ELISA,bound
